The target of this series is Clostridium difficile toxin B (TcdB) (Clostridioides difficile, UniProt P18177). Kind of series: Inhibition of TcdB cytotoxicity in CT26 cells (cell rounding, non-glucosylated Rac1 Western blot). As to conditions: pre-treatment 750 ng/ml 1 hr, TcdB 15 ng/ml 5 hrs. It is filed as cell-based. Here is the method: (FIG. 5A) LHD inhibits TcdB-induced cell rounding. CT26 cells in 12-well plates were exposed to HD or LHD at 750 ng/ml (50 times of TcdB concentration) or nothing for 1 hour, followed by exposure to TcdB at 15 ng/ml for 5 hours. (FIG. 5B) Western-blot analysis of non-glucosylated Rac1 in CT26 cells treated with TcdB in the presence or absence of LHD or HD. TcdB glucosylates Rac1 in cells, serving as a readout for toxin cytotoxicity. Quantitation of Rac1 levels in Western-blot was shown in low panel (*p<0.05). (FIG. 5C) CT26 cells were lysed, and the cytosolic fraction was exposed to TcdB (15 ng/ml) with or without HD at 750 ng/ml (50 times of TcdB concentration) or LHD at 1500 ng/ml (same molecular concentration as HD) or nothing for 1 h followed by Western Blot analysis using a monoclonal antibody that only recognizes non-glucosylated Rac1. β-actin was used as an equal loading control. Quantitation of Rac1 levels in Western-blot was shown in low panel (****p<0.0001).
Chain of Clostridium difficile toxin B (TcdB) (P18177 whole entry): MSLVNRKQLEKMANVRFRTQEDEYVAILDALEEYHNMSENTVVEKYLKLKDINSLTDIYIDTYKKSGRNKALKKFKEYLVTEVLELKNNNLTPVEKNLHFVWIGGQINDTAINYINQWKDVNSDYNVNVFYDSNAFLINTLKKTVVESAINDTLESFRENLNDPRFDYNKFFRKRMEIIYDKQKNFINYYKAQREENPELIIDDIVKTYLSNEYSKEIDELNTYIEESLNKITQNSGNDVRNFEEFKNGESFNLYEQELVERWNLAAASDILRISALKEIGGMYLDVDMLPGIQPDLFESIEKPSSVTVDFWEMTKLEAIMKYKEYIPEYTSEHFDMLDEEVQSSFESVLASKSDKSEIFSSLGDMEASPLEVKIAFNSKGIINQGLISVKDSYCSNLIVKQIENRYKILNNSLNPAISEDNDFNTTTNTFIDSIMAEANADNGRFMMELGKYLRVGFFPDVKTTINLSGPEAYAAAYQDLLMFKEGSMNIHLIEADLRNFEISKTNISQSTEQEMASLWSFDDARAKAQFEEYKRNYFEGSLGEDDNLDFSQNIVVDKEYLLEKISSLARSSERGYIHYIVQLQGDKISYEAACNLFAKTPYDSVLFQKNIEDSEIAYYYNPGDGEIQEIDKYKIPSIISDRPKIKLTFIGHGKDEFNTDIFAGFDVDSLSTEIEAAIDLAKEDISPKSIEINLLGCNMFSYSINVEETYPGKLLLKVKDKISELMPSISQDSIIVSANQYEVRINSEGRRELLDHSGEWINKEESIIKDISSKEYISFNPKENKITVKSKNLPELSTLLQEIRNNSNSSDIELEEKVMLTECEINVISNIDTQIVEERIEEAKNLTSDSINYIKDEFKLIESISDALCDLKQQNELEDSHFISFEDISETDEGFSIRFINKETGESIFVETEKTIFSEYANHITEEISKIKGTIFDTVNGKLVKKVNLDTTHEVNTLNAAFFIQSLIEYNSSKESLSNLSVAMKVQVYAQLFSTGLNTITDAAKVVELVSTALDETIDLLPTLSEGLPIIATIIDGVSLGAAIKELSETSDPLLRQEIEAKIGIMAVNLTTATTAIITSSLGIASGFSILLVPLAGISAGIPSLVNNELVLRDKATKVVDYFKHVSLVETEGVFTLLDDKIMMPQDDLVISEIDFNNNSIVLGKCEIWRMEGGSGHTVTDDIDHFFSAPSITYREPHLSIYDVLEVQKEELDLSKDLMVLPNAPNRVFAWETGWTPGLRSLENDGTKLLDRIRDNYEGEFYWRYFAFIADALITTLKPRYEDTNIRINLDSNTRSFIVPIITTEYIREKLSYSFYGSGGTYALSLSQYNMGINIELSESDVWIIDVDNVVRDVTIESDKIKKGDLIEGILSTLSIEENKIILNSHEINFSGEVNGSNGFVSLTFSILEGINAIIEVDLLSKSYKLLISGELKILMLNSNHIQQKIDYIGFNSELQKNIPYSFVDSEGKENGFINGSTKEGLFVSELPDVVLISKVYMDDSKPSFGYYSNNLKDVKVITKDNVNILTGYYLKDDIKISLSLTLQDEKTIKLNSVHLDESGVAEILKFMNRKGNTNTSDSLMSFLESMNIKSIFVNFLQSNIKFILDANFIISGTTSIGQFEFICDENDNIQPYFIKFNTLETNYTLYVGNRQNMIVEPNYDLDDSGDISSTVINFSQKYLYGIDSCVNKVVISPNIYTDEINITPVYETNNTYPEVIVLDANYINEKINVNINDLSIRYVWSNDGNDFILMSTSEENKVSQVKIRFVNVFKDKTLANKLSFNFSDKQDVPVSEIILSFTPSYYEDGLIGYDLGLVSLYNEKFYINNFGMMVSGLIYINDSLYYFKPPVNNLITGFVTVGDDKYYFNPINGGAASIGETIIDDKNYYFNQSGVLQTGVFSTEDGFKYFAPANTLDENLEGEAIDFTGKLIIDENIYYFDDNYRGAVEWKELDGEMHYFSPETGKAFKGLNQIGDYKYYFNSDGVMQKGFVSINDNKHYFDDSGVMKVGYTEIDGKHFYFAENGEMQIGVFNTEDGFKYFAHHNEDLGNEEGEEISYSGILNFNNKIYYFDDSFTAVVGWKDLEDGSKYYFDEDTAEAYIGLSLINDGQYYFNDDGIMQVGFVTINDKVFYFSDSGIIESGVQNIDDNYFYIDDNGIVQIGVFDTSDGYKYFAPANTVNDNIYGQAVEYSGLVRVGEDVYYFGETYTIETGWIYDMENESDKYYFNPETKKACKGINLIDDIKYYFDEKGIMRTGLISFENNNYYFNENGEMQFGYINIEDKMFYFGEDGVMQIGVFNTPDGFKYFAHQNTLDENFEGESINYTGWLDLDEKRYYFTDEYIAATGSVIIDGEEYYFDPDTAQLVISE
It was reported that the human defensin protein HD5 (HD) could inhibit TcdB (Giesemann, Guttenberg et al. 2008). Therefore, we evaluated the inhibitory effects of LHD and HD on TcdB. Briefly, CT26 cells in 12-well plates were exposed to LHD, synthesized HD or PBS at 750 ng/ml (50 times of TcdB concentration) for 1 hr, followed by exposure to TcdB at 15 ng/ml for 5 hrs. Total cell lysates were subjected to 12% SDS-PAGE separation, and transferred onto a Nylon membrane. Following blocking for 1 hr at room temperature with 5% skim milk, the membrane was incubated overnight at 4° C. with RAC1 antibody (1:1000, Cat: 610650, BD Biosciences) and β-actin antibody (1:10000, Cat: A5441, Sigma-Aldrich).

Entries after “also recorded” stand apart in the source; their conditions may differ.

B1: LHD: Fusion of phage phiC2 lysin catalytic domain (LCD, 179aa), (GGGGS)3 linker and human alpha-defensin 5; SEQ ID NO:1 (protein)
chain: MKICITVGHSILKSGACTSADGVVNEYQYNKSLAPVLADTFRKEGHKVDVIICPEKQFKTKNEEKSYKIPRVNSGGYDLLIELHLNASNGQGKGSEVLYYSNKGLEYATRICDKLGTVFKNRGAKLDKRLYILNSSKPTAVLIESFFCDNKEDYDKAKKLGHEGIAKLIVEGVLNKNINGGGGSGGGGSGGGGSATCYCRTGRCATRESLSGVCEISGRLYRLCCR
For the molecule B1, the “cell rounding caused by TcdB” value was “decreased cell rounding; also recorded: comparable to human defensin peptide HD5” and the “non-glucosylated Rac1 in cells (readout of cytotoxicity of TcdB)” value is “significant increase”.

(Values after US12630596B2, “Engineered lysin-human defensin protein” (priority 2018, dated 2026).)
